Data from patent US20070243194A1.

How the values were obtained:
[1] = molecular target: human IGF-1R on cells (human) (UniProt P08069); assay: flow cytometry on MCF-7 cells, FITC anti-mouse IgG; x axis is log Ab conc. (nM)
[2] = molecular target: human IGF-1R(1-902)-His10 (human) (UniProt P08069); assay: ELISA on plates coated with rh-IGF-1R, HRPO anti-mouse IgG Fc [a]
human IGF-1R(1-902)-His10 (human), sequence (P08069 other isoform, or with tags, fused parts or gaps): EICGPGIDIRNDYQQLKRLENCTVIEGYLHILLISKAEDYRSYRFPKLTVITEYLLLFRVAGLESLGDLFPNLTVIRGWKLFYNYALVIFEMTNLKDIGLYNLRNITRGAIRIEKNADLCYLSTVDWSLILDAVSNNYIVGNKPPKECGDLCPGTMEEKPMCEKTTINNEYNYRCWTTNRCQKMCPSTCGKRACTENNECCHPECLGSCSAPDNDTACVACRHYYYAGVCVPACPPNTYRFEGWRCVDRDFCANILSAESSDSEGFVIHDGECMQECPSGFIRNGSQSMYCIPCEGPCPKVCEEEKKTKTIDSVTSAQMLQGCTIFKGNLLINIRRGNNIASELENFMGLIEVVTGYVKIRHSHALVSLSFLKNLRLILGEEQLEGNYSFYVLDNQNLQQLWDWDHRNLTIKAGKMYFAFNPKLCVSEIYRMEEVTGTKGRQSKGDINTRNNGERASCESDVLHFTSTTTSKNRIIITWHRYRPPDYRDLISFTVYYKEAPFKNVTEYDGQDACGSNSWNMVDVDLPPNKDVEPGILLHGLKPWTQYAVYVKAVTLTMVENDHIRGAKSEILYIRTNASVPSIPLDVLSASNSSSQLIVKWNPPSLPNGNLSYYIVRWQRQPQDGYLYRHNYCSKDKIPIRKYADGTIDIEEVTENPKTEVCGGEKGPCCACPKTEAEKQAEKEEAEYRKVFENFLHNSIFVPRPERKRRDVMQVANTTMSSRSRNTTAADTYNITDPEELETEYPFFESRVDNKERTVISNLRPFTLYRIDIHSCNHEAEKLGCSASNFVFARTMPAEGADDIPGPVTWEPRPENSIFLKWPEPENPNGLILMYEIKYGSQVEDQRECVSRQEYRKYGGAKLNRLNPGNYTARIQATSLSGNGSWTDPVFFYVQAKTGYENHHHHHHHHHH

human IGF-1R on cells (human), sequence (P08069 31-740, chain 1 of 2): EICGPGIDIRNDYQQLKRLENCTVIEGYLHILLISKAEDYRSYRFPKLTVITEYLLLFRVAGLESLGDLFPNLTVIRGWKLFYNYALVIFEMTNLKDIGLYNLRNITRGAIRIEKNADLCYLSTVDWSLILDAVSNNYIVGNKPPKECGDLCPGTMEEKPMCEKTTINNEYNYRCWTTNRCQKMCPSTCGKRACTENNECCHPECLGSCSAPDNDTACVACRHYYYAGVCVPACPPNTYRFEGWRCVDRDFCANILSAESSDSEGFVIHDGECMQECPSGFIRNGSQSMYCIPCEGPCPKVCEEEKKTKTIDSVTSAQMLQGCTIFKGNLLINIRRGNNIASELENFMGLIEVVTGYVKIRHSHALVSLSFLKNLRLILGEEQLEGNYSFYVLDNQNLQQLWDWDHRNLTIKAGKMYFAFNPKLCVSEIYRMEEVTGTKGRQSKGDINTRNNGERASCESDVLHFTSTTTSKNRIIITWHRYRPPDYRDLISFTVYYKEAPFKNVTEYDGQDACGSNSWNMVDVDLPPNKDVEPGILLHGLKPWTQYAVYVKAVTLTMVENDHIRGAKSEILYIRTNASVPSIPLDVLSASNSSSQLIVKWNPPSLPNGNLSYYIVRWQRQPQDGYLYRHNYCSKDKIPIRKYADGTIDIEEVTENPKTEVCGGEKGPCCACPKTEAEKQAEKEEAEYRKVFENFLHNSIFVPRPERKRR
human IGF-1R on cells (human), sequence (P08069 741-1367, chain 2 of 2): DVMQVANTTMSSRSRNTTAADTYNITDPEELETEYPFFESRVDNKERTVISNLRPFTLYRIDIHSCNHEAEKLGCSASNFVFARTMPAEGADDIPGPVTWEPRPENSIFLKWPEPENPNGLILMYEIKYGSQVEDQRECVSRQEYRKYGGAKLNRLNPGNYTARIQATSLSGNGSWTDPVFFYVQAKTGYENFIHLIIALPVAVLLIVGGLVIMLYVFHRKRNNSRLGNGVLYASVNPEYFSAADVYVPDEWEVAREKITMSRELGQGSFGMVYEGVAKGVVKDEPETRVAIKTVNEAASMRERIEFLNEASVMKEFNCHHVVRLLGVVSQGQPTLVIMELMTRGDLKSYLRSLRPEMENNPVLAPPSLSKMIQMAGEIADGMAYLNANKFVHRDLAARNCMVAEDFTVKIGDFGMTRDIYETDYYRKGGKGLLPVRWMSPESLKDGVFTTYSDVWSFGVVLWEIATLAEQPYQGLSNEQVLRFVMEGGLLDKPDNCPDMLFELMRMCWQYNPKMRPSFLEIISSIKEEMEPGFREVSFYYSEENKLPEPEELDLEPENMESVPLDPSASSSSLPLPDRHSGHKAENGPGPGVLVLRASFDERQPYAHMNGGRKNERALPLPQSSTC

IR3 (antibody) showed an EC50 (read off the curve) [1] of 5 nM and an EC50 (read off the curve) [2] of 0.2 nM.
